Experiment: soluble on expression in E. coli; label from the status in PepcDB or PDB records

Sequence	soluble on expression in E. coli
MIFSDWPWRHWRQVRGEAIALRLNDEQLNWRELCARVDELASGFAVQGVVEDSGVMLRAWNTPQTLLAWLALLQCGARVLPVNPQLPQPLLEELLPNLTLQFALVPDGENTFPALTSLHIQRVEGAHVATWQPTRLCSMTLTSGSTGLPKAAVHTYQAHLASAEGVLSLIPFGDHDDWLLSLPLFHVSGQGIMWRWLYAGARMTVRDKQPLEQMLAGCTHASLVPTQLWRLLVNRSSVSLKAVLLGGAAIPVELTEQAREQGIRCFCGYGLTEFASTVCAKEADGLADVGSPLPGREVKIVNNEVWLRAASMAEGYWRNGQLVSLVNDEGWYATRDRGEMHNGKLTIVGRLDNLFFSGGEGIQTEEVERVIAAHPAVLQVFIVPVADKEFGHRPVAVMEYDHESVDLSEWVKDKLARFQQPVRWLTLPPELKNGGIKISRQALKEWVQRQQ	not soluble
MESCLDIFKIVIGPSSSRTVGPMRAACHFISLLREQETLPLIREIEIELYGALSLSRKCHNVDTALYLGLLGCQPENVDLRSYMAVIKRAENENKIELPLSDAGGITIKVKIIANHQAHPGHPYAMTFRARDDYFTVYEETWFSTGAGQVRKHGEPLTPSLPLRTVSPFEFSHAAQLLALCRRNGLSVAALMMKNELCRHSPQTLQNYLAQIWDVMQQAVYRGLHTEGVLPGPYQVPRRACALHKTLQANRSASDFLTALNWVNAFAIAVSEENASGGQIVTAPTNGACGIIPAALCWYDKFVTPLEPGALTRFFLTAAAIAMLFKQNASILGSEVGCQGEIGVACSMAAAGLAELMGASVEQTLSAAEIAMEHHLGLTCDPLGGQVQIPCIERNAISAVKAINAATMAMSRVSEPCISLDEIIAAMYETGKDMSAKYRETYHGSLGKIQPRKRG	not soluble
MSNDQIWDLLGHQIQIELDTGDVRRQESTTGHLMTRDPVSQSLLIAKIEENSTSIKSIEWIPSCSVKSIRKLKNTENPEIHVAIEKYFENDGIEGGSSGAEDSEEDIKKRAHRVVNYLKSHHLDVVEKPNGTYIIAGTVRFERPYHNANLYCDIPIVLKRILKLVEEI	not soluble
MGHHHHHHSHMGFGSDLKNSHEAVLKLQDWELRLLETVKKFMALRIKSDKEYASTLQNLCNQVDKESTVQMNYVSNVSKSWLLMIQQTEQLSRIMKTHAEDLNSGPLHRLTMMIKDKQQVKKSYIGVHQQIEAEMIKVTKTELEKLKCSYRQLIKEMNSAKEKYKEALAKG	soluble
MKGQLAFDLPIRPALSREDFFISPANALALASLDGWRDWPRGKMVLVGPRGSGKTHLAHIWAAQAEARLIPAEALARADLPALAADGAVAVEDAERLGGDRAAEEALFHLHNLMLERAGALLITAAGPPRDWGLGLADLKSRMQAASVTRLEAPDDALLSAMLVKLFTDRQIAVPGMLVPWLVARMDRSCEAARALVAALDARSLAERRPISRQMAAELLGLTATDLEHHHHHH	not soluble
SLSKRLLSLASLALLFGCAQQPNDRAQQYQQQTFPHILNRADVVESNKPRDYTEFSKQSELVVQGSASMAKIYRPLYEQLNEWVLQSGDPATLAQFGIQAAQLGGGDKQGNVLFTGYFSPVIELRHQPDSVFKYPVYGLPKCNKNCPTRAEIYQGALDGQGLELGYAENLIDPFIMEVQGSGFVHFGDDDTLEYFAYAGKNNKAYVSIGKVLIERGLVEREKMSLKAIKDWVLANDEATVRELLEENPSFVFFKPSAAAPVKGSAGIPLLPMASVAGDRSILPMGTPILAEVPLLNADGTWSGAHQLRLLIVLDTGGAVKQNHLDLYHGMGPRAGLEAGHYKHFGRVWKLGLENSPTQAPWALPPEKQQ	not soluble
MGSDKIHHHHHHMFKETLRECMEGHTLAERKAEQVMDAIMKGEATASQIASLLTVLRFRGETVAEMTGFARAMRRHSIQIEHSFSQVVDTCGTGGDDVGTFNISTATALLVSALGVPVAKHGNRAVSSKSGSADVLEALQIPIQSSPEEATASLQKHNMCFMFAPLYHVAMKHAVAPRKEIGFRTIFNLLGPLTNPARAEHQLIGVYDRNFAEKMAETLRRLGTKHSLLVAGHGGLDELSITGPSTVFEVKGDAIDRYELIPEDVGLERGDLAQIQVSTVQESATLIDQVLIGKANKSAQQIVLLNAGAALYAADRVDSIKAGVALAKEGIASGHVADHVRNLRQTDQEAEQHA	not soluble
GSMAPLGGAPRLVLLFSGKRKSGKDFVTEALQSRLGADVCAVLRLSGPLKEQYAQEHGLNFQRLLDTSTYKEAFRKDMIRWGEEKRQADPGFFCRKIVEGISQPIWLVSDTRRVSDIQWFREAYGAVTQTVRVVALEQSRQQRGWVFTPGVDDAESECGLDNFGDFDWVIENHGVEQRLEEQLENLIEFIRSRLKLHHHHHH	soluble
VSQRPFRDRVLHLLALRPYRKAELLLRLQKDGLTQADKDALDGLLQQVANMSAKDGTCTLQDCMYKDVQKDWPGYSEGDQQLLKRVLVRKL	soluble
AGMSLTQVSGPVYVVEDNYYVQENSMVYFGAKGVTVVGATWTPDTARELHKLIKRVSRKPVLEVINTNYHTDRAGGNAYWKSIGAKVVSTRQTRDLMKSDWAEIVAFTRKGLPEYPDLPLVLPNVVHDGDFTLQEGKVRAFYAGPAHTPDGIFVYFPDEQVLYGGCILKEKLGNLSFADVKAYPQTLERLKAMKLPIKTVIGGHDSPLHGPELIDHYEALIKAAPQSS	soluble
GPGSDQLKQSAFLVRNDEKVAALIVLLKRVLHVGEAAANSAQALIFSESKFHVEFLQMILTHYSISTSAVHGQMDQEARRLAVRSFAKRETSVMVVTDVAARGLDLPLLDNVVNFSFPFNPKLFVHRVGRVARAGRSGTAYSIMTFEDFPYYVDLMQFIGRPLQSAPVPGDLLFTPDDGCYGRLPEEDIQLELDFLKRLH	not soluble
MALQNISQNDFALHVQKAEQKSFMQTLEMAKLLSKRGFTLNYIAWLENGTIEISAILYSMPMTGGRYFEINCGPVVTRDKHLTDFYRELKDYVKEKGALELVIKPYDTYQTFDGDGQATSAEKKELISQLTNLGYHFDGLQRDYPNGEPDWHYVKDLSDISEQTLLKSFSKKGRPLVKKAKTFGTKLRRLNRDELNLFKEITSATSDRREYSDKSLDYYQDFYDSFGNNAEFMIASLNFENYLSHLQRDQNKLGNKIAKLQADLEKNPHSEKKQNQLRELSSQFDTFTTRQEEAQKFITKYGKKDVILAGSLFVYTPQEAVYLFSGSYPEFNKFYAPALLQEHVMLEALKRGISFYNLLGITGHFDNSDGVLRFKQNFNGYIVRKMGTFHYYPNPLKYRLLNTIKKILRR	not soluble
MAHHHHHHMGELFSIKNLFICSNERSVEELRTAMEGLLKKERAEGAGGGEKEAKEETHPGGKKYEMIKDYLDANKNNVLHFAIYGNNMNNVKFIIENTNLINSINSEEQNGLIISVLNRNTQISKYLIEQNIDYNQKDKHKANALLYSLITQNYEIFNLLMEKKNIDINVNSFEKGNLLSVSIFERNIHVLKKLFNKFICPFVEGSVYPHPLLYITYSSDNELLFLYLTYCMYYCTKDDALYKINTANFDHSREEIYVDLDHRQVICSIWDNSTYDLSAFKDVLNMTDEDGTPLCSTCVNNGNSLGKNIFDYFSAPS	not soluble
MAHHHHHHMAQAIRDAFTEEASLTVVEEWSSKVVSDLEARATNAHHARQGVLVKPYTADAAETVPVTIVASLREFQGQLYDIYRAAETIRTVIACRIPELKAEDNLGVEVQMTVLKMIDSLEGKLLGSSSGDKEGGAPGVAGMYAAREYLAARGSVEDKVLGKVSDDDKKTKSAAPSVLMELQQIDADALLKLELSATQISTQIRSFINAYAVNWKKLIQPRTNASEKSIS	soluble
MELAYVDAKKEEFDTLDKNHDGKVSLAEYEEHFHEASSKNEKSRTAYFAKVFEDFDEDFNMALSREELERVLAERFLVKPRENFPKLFFKFDVDKSGGLDLTEYMKFDAEFPFDQTDPVGGGPSKSNNHHDQMHTEVPQDADAAAIAAVLAQASPTLNKSPVGVAPPQTSPGLHPVAPGLFQTAVPIKKV	soluble

— the DeepSol protein solubility set
